Data published in EP0571085A1 (BAYLOR COLLEGE OF MEDICINE, dated 1993).

B1: human creatine kinase M subunit (wild-type) (enzyme)
chain: not shown
notes: One subunit (monomer) that associates into dimers; Tested in crude detergent extracts of transfected COS cells; also called M creatine kinase; M CK
B2: human creatine kinase B subunit (wild-type) (enzyme)
chain: not shown
notes: One subunit (monomer) that associates into dimers; Tested in crude detergent extracts of transfected COS cells; also called B creatine kinase; B CK

Legend:
[1] = biological target: the molecule itself; assay: nondenaturing electrophoresis of extracts of COS cells cotransfected with M, mutant M and B constructs (dimer formation)
[2] = biological target: B1; assay: nondenaturing electrophoresis of extracts of COS cells cotransfected with all three constructs
[3] = biological target: the molecule itself; assay: nondenaturing electrophoresis of extracts of COS cells cotransfected with M, B and lys⁻M constructs

binding result [2] | Binder | binding result [1] | binding result [3]
– | B1 | binds | –
binds | B2 | – | binds
